{"source": "patent US20030027180", "about": "“Nucleic acid shuffling” (published 2003)", "key": {"[1]": {"biological_target": "T1, streptavidin (UniProt P22629 P22629:25-183)", "T1 sequence (P22629 25-183, one chain of several)": "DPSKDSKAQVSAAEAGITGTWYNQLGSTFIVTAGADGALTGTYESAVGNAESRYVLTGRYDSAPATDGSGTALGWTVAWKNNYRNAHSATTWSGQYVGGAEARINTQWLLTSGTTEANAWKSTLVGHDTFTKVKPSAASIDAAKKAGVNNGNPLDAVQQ", "assay": "filter; no streptavidin affinity", "settings": "tags: Sigma; chain copies: 4", "method": "(§1) Binding affinity assays: Affinities for streptavidin were measured using a radioactive filter binding assay. Pools or individual clones were amplified by PCR. One pmol was radiolabeled with 15 units T4 PNK and 10 μCi γ-³²P ATP (NEN) in T4 PNK buffer at 37° C., 1 h. Labeled DNA was extracted twice with phenol-chloroform and purified twice by gel filtration to remove ATP. The DNA was then denatured in water at 95° C. for 5 min together with 2 μg human genomic DNA (to block nonspecific DNA binding) per 5 fmol labeled DNA, and chilled in ice water for 5 mins. 5 fmol of labeled DNA plus 2 μg unlabeled human genomic DNA was added to varying amounts of streptavidin (0 to 1024 nM) in 50 μL of 100 mM NaCl, 50 mM Tris-Cl pH 8.0, 5 mM MgCl₂ (“assay buffer”), giving a final concentration of labeled DNA of 0.1 nM. The DNA and streptavidin were incubated at room temperature for 30 minutes. A multiscreen-HA 96 well nitrocellulose filter plate (Millipore), which retains protein-DNA complexes much better than free DNA, was pre-washed with 125 μL assay buffer then loaded with each assay sample. The samples were rapidly filtered on a vacuum manifold and the membranes washed twice with 250 uL of assay buffer. The membrane for each well was punched out from the plate using a stylus and the bound radioactive label quantitated by phosphorimager together with 1 fmol of unreacted probe."}, "[2]": {"biological_target": "T1, streptavidin", "assay": "filter; affinity comparable to error-prone PCR evolved sequences; no own Kd printed", "settings": "tags: Sigma; chain copies: 4; stem-loop predicted by Mfold", "method": "as §1"}, "[3]": {"biological_target": "T1, streptavidin", "assay": "filter; 100 mM NaCl, 50 mM Tris pH 8.0, 5 mM MgCl2, room temperature, human genomic DNA competitor", "settings": "tags: Sigma; chain copies: 4; label: 5'-32P", "method": "as §1"}}, "data": [{"binder": "CTGTGAGACAAAACCTGCGACCGGTGCGTCGTCTCACAGA (ssDNA)", "note": "[complement strand of minimal 40-mer]", "values": [{"measurement": "binding result", "setting": "[1]", "result": "no binding"}]}, {"binder": "TCTGTGAGACGACGCACCGGTCGCAGGTTTTGTCTCACAG (ssDNA)", "note": "[minimal 40-mer]", "values": [{"measurement": "binding result", "setting": "[2]", "result": "binds"}]}, {"binder": "13x16 #1 (ssDNA) DNA: GAAAACTGCTCATATGATTGATTAGCCCGCTGCTCGTCCAAATGACGGCTCAGCTCTGTATTTTTAGCGTCTGTGAGACAGAACCTGCGACCGGTGCGTCGTCTCACAGTCTACTGTATCTTCGCGTACCTTAGGTTTACCCGCTGCTCGTCCAAATGACGGCTCTCTGTGAGACAAAACCTGCGACCGGTGCGTCGTCTCACAGTAAGAGGGTTCTTGGATA", "values": [{"measurement": "Kd", "setting": "[3]", "result": 4.7, "unit": "nM"}]}]}
